How the values were obtained:
[1] = molecular target: T1, SARS-CoV-2 S蛋白 (SARS-CoV-2, UniProt P0DTC2 16-1213); test: ELISA, antibody on S protein
[2] = molecular target: T2, SARS-CoV-2 S2蛋白 (SARS-CoV-2, UniProt P0DTC2 686-1213); test: ELISA, antibody on S2 protein
T2 construct: domain: S2

[3] = molecular target: T1, SARS-CoV-2 S蛋白; test: cell-based or functional assay
[4] = molecular target: T3, SARS-CoV-2 S1蛋白 (SARS-CoV-2, UniProt P0DTC2 16-685); test: ELISA
T3 construct: domain: S1

B1: 全人单克隆抗体17-2 (antibody, V domains shown)
VH: QLQLQESGPGLVKASETLSLTCTVSSGSVSSDSYYWSWIRQPPGKGLEWIGYIYYSGSTNYNPSLKSRVTMSVDTSKNQFSLKLDSVTAADTAAYYCARGPLGLYYYYMDVWGKGTTVTVSS
VL: DIQMTQSPSSLSASVGDRVTITCRASQSINNYLNWYQQKPGKAPKLLIYAASSLQSGVPSRFSGSGSGTDFALTISGLQPEDFATYYCQESNSSPFTFGPGTKVDIK
notes: also called 17-2抗体
Q: Which EC50 [1] does the source give for B1 here?
A: 0.034 µg/mL

Q: What about the EC50 [2] of the same binder?
A: 0.038 µg/mL

Q: What about the “假病毒中和实验 IC50” value [3] of the same binder?
A: 0.587 µg/mL

Q: Does B1 bind [4]?
A: no binding
